Measurements reported in article PMC7954794, “Protein context shapes the specificity of SH3 domain-mediated interactions in vivo” (Nature Communications, 2021).

B1: YDL146W (protein, UniProt Q12342 1-491, looked up)
Protein LDB17: MILDPLSPNIENHTQDEIIEFWEKTESIANIPKENLDESHVNSSLVAYLKFATDSYKVFINTDRDLYRMSLILLESSLFEFKKEFCLSKLQSLLNIDLLEMNMKFIIVYILLCEAKKNVYSLEIMLKFQGFTVFYNTLYTQFAYLSKYGKERTVASKHQYNSNNSSTGTSLDSLDRSLTDIDLGIIDEMKQISTVLMDLLFQIMKYCKCVIANLQIVDDFFVYYMMESMRSDTMDDMFNNAEFKLLLALNEQYMMFAKEYDIENKVYKYLINGSVSRCFTELLLLKFNRASDPPLQIMMCKIIYLILTPRGDYSPMNFFYTNDLRVLIDVLIRELQNISEDEEVLRNTLLRVLIPLLKNTQLSKTHYRKDDLNKLLNYLSTLDNICVDSPALHEHQVTVALSRKCLQQIPWLETPSTPSDGGSSVSSNNTSRNSSIVALGTPDNQNILARKGHLYSNRELDVSAESLTKRKAKAPPPPPPPPPSRKCGTPK
B2: YFR040W (protein, UniProt P43612 1-1002, looked up)
SIT4-associating protein …: MSFWPFGQNLNHSNINKILDEYFHVLHELERINPSVGKAIPAIFNNVQERGTSDSLDSIPEEYSHGDEVKTARGDQKSRFEKDDQQERYEKEEEERSMNSSESSTTSFSSGSTSKTDLDEEDISNATAPMMVTTKNLDNSFIERMLVETELLNELSRQNKTLLDFICFGFFFDKKTNKKVNNMEYLVDQLMECISKIKTATTVDLNNLIDYQEQQQLDDSSQEDVYVESDTEQEEEKEDDNNSNNKKRRKRGSSSFGNDDINNNDDDDDANEDDESAYLTKATIISEIFSLDIWLISESLVKNQSYLNKIWSIINQPNFNSENSPLVPIFLKINQNLLLTRQDQYLNFIRTERSFVDDMLKHVDISLLMDFFLKIISTDKIESPTGIIELVYDQNLISKCLSFLNNKESPADIQACVGDFLKALIAISANAPLDDISIGPNSLTRQLASPESIAKLVDIMINQRGAALNTTVSIVIELIRKNNSDYDQVNLLTTTIKTHPPSNRDPIYLGYLLRKFSNHLSDFFQIILDIENDANIPLHENQLHEKFKPLGFERFKVVELIAELLHCSNMGLMNSKRAERIARRRDKVRSQLSHHLQDALNDLSIEEKEQLKTKHSPTRDTDHDLKNNNGKIDNDNNDNDDESDYGDEIDESFEIPYINMKQNIKLRTDPTVGDLFKIKLYDTRIVSKIMELFLTHPWNNFWHNVIFDIIQQIFNGRMDFSYNSFLVLSLFNLKSSYQFMTDIVISDEKGTDVSRFSPVIRDPNFDFKITTDFILRGYQDSYKFYELRKMNLGYMGHIVLIAEEVVKFSKLYKVELISPDIQVILQTEEWQYYSEEVLNETRMMYSKILGGGSYIDDGNGNIIPQLPDNTTVLTPNGDASNNNEILDSDTGSSNGTSGGGQLINVESLEEQLSLSTESDLHNKLREMLINRAQEDVDNKNTENGVFILGPPEDKNSNSNINNTNHNSNNSNNNDNNDNNDNDNDNTRNYNEDADNDNDYDHE
B3: ABP1 001 P * (protein, UniProt P15891 2-592, looked up)
Actin-binding protein: ALEPIDYTTHSREIDAEYLKIVRGSDPDTTWLIISPNAKKEYEPESTGSSFHDFLQLFDETKVQYGLARVSPPGSDVEKIIIIGWCPDSAPLKTRASFAANFAAVANNLFKGYHVQVTARDEDDLDENELLMKISNAAGARYSIQTSSKQQGKASTPPVKKSFTPSKSPAPVSKKEPVKTPSPAPAAKISSRVNDNNDDDDWNEPELKERDFDQAPLKPNQSSYKPIGKIDLQKVIAEEKAKEDPRLVQKPTAAGSKIDPSSDIANLKNESKLKRDSEFNSFLGTTKPPSMTESSLKNDDDKVIKGFRNEKSPAQLWAERKAKQNSGNAETKAEAPKPEVPEDEPEGEPDVKDLKSKFEGLAASEKEEEEMENKFAPPPKKSEPTIISPKPFSKPQEPVKAEEAEQPKTDYKKIGNPLPGMHIEADNEEEPEENDDDWDDDEDEAAQPPLPSRNVASGAPVQKEEPEQEEIAPSLPSRNSIPAPKQEEAPEQAPEEEIEEEAEEAAPQLPSRSSAAPPPPPRRATPEKKPKENPWATAEYDYDAAEDNELTFVENDKIINIEFVDDDWWLGELEKDGSKGLFPSNYVSLGN
B4: ABP1 001 P C (protein, UniProt P15891 2-592, looked up)
Actin-binding protein: ALEPIDYTTHSREIDAEYLKIVRGSDPDTTWLIISPNAKKEYEPESTGSSFHDFLQLFDETKVQYGLARVSPPGSDVEKIIIIGWCPDSAPLKTRASFAANFAAVANNLFKGYHVQVTARDEDDLDENELLMKISNAAGARYSIQTSSKQQGKASTPPVKKSFTPSKSPAPVSKKEPVKTPSPAPAAKISSRVNDNNDDDDWNEPELKERDFDQAPLKPNQSSYKPIGKIDLQKVIAEEKAKEDPRLVQKPTAAGSKIDPSSDIANLKNESKLKRDSEFNSFLGTTKPPSMTESSLKNDDDKVIKGFRNEKSPAQLWAERKAKQNSGNAETKAEAPKPEVPEDEPEGEPDVKDLKSKFEGLAASEKEEEEMENKFAPPPKKSEPTIISPKPFSKPQEPVKAEEAEQPKTDYKKIGNPLPGMHIEADNEEEPEENDDDWDDDEDEAAQPPLPSRNVASGAPVQKEEPEQEEIAPSLPSRNSIPAPKQEEAPEQAPEEEIEEEAEEAAPQLPSRSSAAPPPPPRRATPEKKPKENPWATAEYDYDAAEDNELTFVENDKIINIEFVDDDWWLGELEKDGSKGLFPSNYVSLGN
B5: ABP1 001 P E (protein, UniProt P15891 2-592, looked up)
Actin-binding protein: ALEPIDYTTHSREIDAEYLKIVRGSDPDTTWLIISPNAKKEYEPESTGSSFHDFLQLFDETKVQYGLARVSPPGSDVEKIIIIGWCPDSAPLKTRASFAANFAAVANNLFKGYHVQVTARDEDDLDENELLMKISNAAGARYSIQTSSKQQGKASTPPVKKSFTPSKSPAPVSKKEPVKTPSPAPAAKISSRVNDNNDDDDWNEPELKERDFDQAPLKPNQSSYKPIGKIDLQKVIAEEKAKEDPRLVQKPTAAGSKIDPSSDIANLKNESKLKRDSEFNSFLGTTKPPSMTESSLKNDDDKVIKGFRNEKSPAQLWAERKAKQNSGNAETKAEAPKPEVPEDEPEGEPDVKDLKSKFEGLAASEKEEEEMENKFAPPPKKSEPTIISPKPFSKPQEPVKAEEAEQPKTDYKKIGNPLPGMHIEADNEEEPEENDDDWDDDEDEAAQPPLPSRNVASGAPVQKEEPEQEEIAPSLPSRNSIPAPKQEEAPEQAPEEEIEEEAEEAAPQLPSRSSAAPPPPPRRATPEKKPKENPWATAEYDYDAAEDNELTFVENDKIINIEFVDDDWWLGELEKDGSKGLFPSNYVSLGN

Columns and labels:
ABP1 = experiment: DHFR-PCA on solid medium, bait ABP1 (Fig. 1B); assay type: cell-based, Saccharomyces cerevisiae; details: bait ABP1, label = prey; 2-4 replicates
From the text: Supplement 41467_2021_21873_MOESM8_ESM.xlsx, sheet "Fig1B" | column: medsize; medrep; Ratio; Score

Hua2 = experiment: Deep mutational scanning of Abp1 SH3, Abp1-Hua2 DHFR-PCA (DMS score); assay type: cell-based, Saccharomyces cerevisiae; details: for ratio (log2 scale): HUA2_MTX2 (test) vs HUA2_S2 (reference); for ratio (log2 scale) / ratio (log2 scale) mean / frequency (reference condition) / frequency (test condition): amino acid mutation format; for ratio (log2 scale) / frequency (reference condition) / frequency (test condition): replicate 1, Fig. S3A-B; for ratio (log2 scale) mean: condition HUA2_MTX2; for ratio (log2 scale) mean / frequency (reference condition) mean / frequency (test condition) mean / frequency (log2 scale) (reference condition) mean / frequency (log2 scale) (test condition) mean: Fig. S3E; for frequency (reference condition): reference condition HUA2_S2; for frequency (reference condition) mean / frequency (log2 scale) (reference condition) mean: reference condition for HUA2_MTX2; for frequency (test condition) / frequency (test condition) mean / frequency (log2 scale) (test condition) mean: test condition HUA2_MTX2
Experimental: Single site mutation libraries were generated by a PCR-based saturation mutagenesis method[50] as described below. The mutagenesis was carried out on the pUC19 plasmid containing the SH3 domain sequence of ABP1 flanked by its homology arms subsequently used in the CRISPR mediated genomic re-integration. We used oligos containing degenerate nucleotides (NNN) to carry out the mutagenesis at each codon of the domain sequence. In the first step of the two-step PCR procedure (short PCR step), an amplicon was generated with an oligo containing the degenerate codon which is positioned within the domain sequence, and another oligo lying outside Abp1 sequence in the plasmid. Short PCR step was carried out with the following settings: 5 min at 95 °C, 35 cycles: 20 s at 98 °C, 15 s at 60 °C, 30 s at 72 °C, and a final extension of 1 min at 72 °C. The amplicon generated in this step was used as a mega primer in the second step (long PCR step) to amplify the whole plasmid. Long PCR step was carried out with the following settings: 5 min at 95 °C, 22 cycles: 20 s at 98 °C, 15 s at 68 °C, 3 min 30 s at 72 °C, and a final extension of 5 min at 72 °C. The long PCR product was digested for 2 h at 37 °C with DpnI. The digestion product was then transformed into E. coli MC1061 competent cells. In order to obtain most of the 64 possible codons, we recovered ~1000 colonies from each plate to retrieve the plasmid single mutant libraries. Saturation mutagenesis was carried out in a codon-position-wise manner. Mutants at each position were stored separately. Library quality control was assessed by amplifying the purified plasmid DNA preparations by PCR followed by Illumina sequencing as described below. The genomic insertion of the mutant libraries (one library per amino acid position) was performed by targeting the stuffer sequence in the ABP1 SH3-deleted strain as described in the strain construction section. ABP1 SH3-deleted yeast competent cells were co-transformed with pCAS containing the stuffer-specific gRNA and PCR amplified ABP1 SH3 single position mutated libraries from the pUC19 preparations. As for the library generation, ~1000 colonies from each plate were retrieved. Glycerol stocks of yeast cells were kept for each position (58 different stocks corresponding to the 58 amino acid positions of Abp1 SH3). The stocks were also validated by Illumina sequencing (see below).
Liquid DHFR-PCA experiments were performed following the generation of the ABP1 SH3 single position mutated yeast strains and were performed in biological independent duplicates. An overnight culture was started in YPD + NAT by adding the same number of cells from each yeast mutant strain (master pool). Then, the master pool and Hua2-DHFR F[3] or Lsb3-DHFR F[3] preys strains were mixed in YPD (2:1) for mating and incubated for 8 h at 30 °C. Diploid cells were selected the first time by transferring the mixture in a YPD + NAT + HPH (OD 0.5) culture for 16 h at 30 °C. The next day, the first diploid selection was transferred in SC complete pH 6.0 + NAT + HPH at 0.5 OD and the culture was grown for 24 h at 30 °C. The validation of the yeast mutant libraries was done the next day with a fraction of the diploid cells (first DHFR-PCA experiment time point without PCA selection, reference condition S2) by amplifying ABP1 SH3 genomic sequence followed by Illumina sequencing as described in the section below. Following the selection, diploid cells OD was read using a TECAN Infinite F200 Pro, and dilutions to 0.1 OD in PCA selection media without agar in a 50 mL tube was done. Tubes were incubated at 30 °C for 72 h (second-time point of the DHFR-PCA experiment, first PCA selection). A fraction of the cells (5U OD) was collected for Illumina sequencing. The cells from the first PCA step were grown for a second PCA selection step using the same procedures. […]

Row | Molecule | medrep (log2 median colony size normalized to plate background, PCA score) (ABP1) | ratio (log2 scale) (Hua2) | ratio (log2 scale) mean (Hua2) [log2 scale] | frequency (reference condition) (Hua2) | frequency (reference condition) mean (Hua2) | frequency (test condition) (Hua2) | frequency (test condition) mean (Hua2) | frequency (log2 scale) (reference condition) mean (Hua2) | frequency (log2 scale) (test condition) mean (Hua2)
1 | B1 | 3.631 |  |  |  |  |  |  |  | 
2 | B2 | 2.847 |  |  |  |  |  |  |  | 
3 | B3 |  | -1.421 | -1.432 | 0.001041 | 0.0009397 | 5.39E-06 | 2.69E-06 |  | 
4 | B4 |  | 2.7124 | 3.075 | 0.0005961 | 0.0004649 | 0.001896 | 0.001734 | -1.441 | -1.435
5 | B5 |  | 2.627 | 2.654 | 0.0007975 | 0.0006949 | 0.002419 | 0.002135 | -1.4398 | -1.434
